These results are taken from US9889183B2, “PKC activators and anticoagulant in regimen for treating stroke” (BLANCHETTE ROCKEFELLER NEUROSCIENCES INSTITUTE, priority 2010, dated 2018).

This assay deals with ischemic stroke (middle cerebral artery occlusion) in rats. As to the kind of experiment: Focal ischemia (MCAO) model of stroke. It is filed as in vivo, rat. The settings on record: rTPA 6 hours after the stroke, without subsequent bryostatin; rats. The method, then: A transient animal model of focal ischemia was used for these experiments. The middle cerebral artery (MCA) was surgically dissected and occluded in anesthetized rats by ligature, followed by reperfusion after a defined period (about 2 hours). Animal models transient ischemia via occlusion of the MCA (MCAO) are well-known and described in, e.g., Sicard and Fisher, Exp. & Transl. Stroke Med. (2009), vol. 1, pp. 1-7.

B1: rTPA: recombinant tissue plasminogen activator, thrombolytic serine protease (protein, UniProt P00750 36-562, looked up)
Tissue-type plasminogen …: SYQVICRDEKTQMIYQQHQSWLRPVLRSNRVEYCWCNSGRAQCHSVPVKSCSEPRCFNGGTCQQALYFSDFVCQCPEGFAGKCCEIDTRATCYEDQGISYRGTWSTAESGAECTNWNSSALAQKPYSGRRPDAIRLGLGNHNYCRNPDRDSKPWCYVFKAGKYSSEFCSTPACSEGNSDCYFGNGSAYRGTHSLTESGASCLPWNSMILIGKVYTAQNPSAQALGLGKHNYCRNPDGDAKPWCHVLKNRRLTWEYCDVPSCSTCGLRQYSQPQFRIKGGLFADIASHPWQAAIFAKHRRSPGERFLCGGILISSCWILSAAHCFQERFPPHHLTVILGRTYRVVPGEEEQKFEVEKYIVHKEFDDDTYDNDIALLQLKSDSSRCAQESSVVRTVCLPPADLQLPDWTECELSGYGKHEALSPFYSERLKEAHVRLYPSSRCTSQHLLNRTVTDNMLCAGDTRSGGPQANLHDACQGDSGGPLVCLNDGRMTLVGIISWGLGCGQKDVPGVYTKVTNYLDWIRDNMRP
Broadly, the mortality is the percentage killed. Lower therefore signals a weak lethal effect. Molecule B1 came in with a mortality of 44%.
